# In patent US20260234188A1, “CHEMOKINE-BINDING PEPTIDES” (Oxford University Innovation Limited, priority 2022, published 2026):
# T1: CXCL10 (Homo sapiens, UniProt P02778)
# T1 construct: purchased Peprotech
# T1 sequence (P02778 22-98): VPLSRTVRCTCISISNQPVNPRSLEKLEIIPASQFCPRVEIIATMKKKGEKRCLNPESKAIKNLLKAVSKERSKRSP
# B1: EVA4: parental class A tick evasin protein of HD2, expressed in HEK293F cells (protein)
# chain: EVPQMTSSSAPDLEEEDDYTAYAPLTCYFTNSTLGLLAPPNCSVLCNSTTTWFNETSPNNASCLLTVDFLTQDAILQENQPYNCSVGHCDNGTCAGPPRHAQCW
# Legend:
# [1] = molecular target: T1, CXCL10; assay: CXCL10-induced activated T-cell migration, transwell assay; type: cell-based; conditions: dose of 20 μM
# Procedure: FIG. 2. […] BK1.2 is described in (Darlot, 2020). […] Chemokines used are indicated by the name, followed in parenthesis by the supplier code (P in supplier code indicates Peprotech). […] All experiments were performed at EC80 doses of indicated chemokine. Data are shown as box-whisker plots of three technical and three biological replicates. Statistically significant differences (compared to control, indicated by #), using Dunnett's test with correction for multiple comparisons, are indicated by asterisks: ****=P≤0.0001, ***=P≤0.001, **=P≤0.01, *=P≤0.05.
# FIG. 11. […] Technical replicates are shown as individual data points. […] The response curve (solid blue line) and its 95% confidence interval (grey ribbon) were calculated using a 4-parameter log-logistic plot.
# (§1) Briefly, cell migration assays use THP1 cells (human monocyte) and primary human buffy coat white cells (consisting of neutrophil granulocytes, monocytes, and lymphocytes), and activated T-cells. THP1 cells and primary monocytes respond to CCL2, CCL3, CCL5, CCL8 and CXCL4, granulocytes to CXCL1 and CXCL8, activated T-cells to CXCL9/10/11. Assays are performed in 96-well Boyden chambers, and migrated cells counted and characterized using and ATTUNE Flow Cytometer as described. […]
# [2] = test system: CC and CXC chemokines; assay: Chemokine-induced cell migration assays, pooled over chemokines (meta-analysis); type: cell-based, human; conditions: CC chemokines
# Procedure: FIG. 16. Effect of HD2 alanine mutations on chemotaxis. […] All experiments were performed as three technical and three biological replicates, and individual data points are indicated, and coloured by the chemokine used. Statistically significant differences (compared to control, coloured blue), using Dunnett's test with correction for multiple comparisons, are indicated by asterisks: ****=P≤0.0001, ***=P≤0.001, **=P≤0.01, *=P≤0.05, n=45 observations per group (three technical and three biological replicates for each chemokine). FIG. 16B, Faceted plots of change in median normalised cell count between alanine mutant and wild-type HD2 peptide obtained in cell migration assays (Y-axis, Δmedian normalised cell count) versus alanine mutated residue (X-axis). Chemokines used for each experiment are indicated in the strip to the right of each plot. Statistically significant differences compared to parental HD2 are shown as red dots. […]
# as §1, with “THP1 cells and primary monocytes respond to CCL2, CCL3, CCL5, CCL8 and CXCL4, granulocytes to CXCL1 and CXCL8, activated T-cells to CXCL9/10/11.” left out
molecule,measurement,setting,value
B1,inhibition of cell migration,[1],did not inhibit
same,inhibition of CC chemokines in dose-response experiments,[2],inhibited
